Measured values reported in patent US20250268994A1.

Target: delta (India) variant S glycoprotein of SARS-CoV-2 (SARS-CoV-2) (UniProt P0DTC2)
Experiment: cell-based or functional assay

| Substance | Preliminary Estimate of IC50 (nM), RVP neutralization [nM] |
| --- | --- |
| hsACE2 N90D R273A (variant polypeptide encoded by SEQ ID NO: 4) (from UniProt Q9BYF1 18-740) (receptor) | 2.74 |
| hsACE2 N90D T92A (variant polypeptide encoded by SEQ ID NO: 5) (from UniProt Q9BYF1 18-740) (receptor) | 2.33 |
| hsACE2 H374N H378N (variant polypeptide encoded by SEQ ID NO: 6) (from UniProt Q9BYF1 18-740) (receptor) | 8.29 |
